Laboratory results: patent publication US20140308283A1 (TORAY INDUSTRIES, published 2014)

T1: polypeptide of SEQ ID NO: 266 (human)
T1 peptide: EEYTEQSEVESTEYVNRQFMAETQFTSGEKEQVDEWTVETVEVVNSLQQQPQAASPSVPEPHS

T2: peptide of SEQ ID NO: 267 (human)
T2 peptide: QQPQAASPSVPE

T3: CAPRIN-1 protein expressed on the cell membrane surface of human cancer cell lines (human, UniProt Q14444 2-709)
T3 construct: whole, on cells; also called human CAPRIN-1; Cytoplasmic- and proliferation-associated protein 1
T3 sequence (looked up): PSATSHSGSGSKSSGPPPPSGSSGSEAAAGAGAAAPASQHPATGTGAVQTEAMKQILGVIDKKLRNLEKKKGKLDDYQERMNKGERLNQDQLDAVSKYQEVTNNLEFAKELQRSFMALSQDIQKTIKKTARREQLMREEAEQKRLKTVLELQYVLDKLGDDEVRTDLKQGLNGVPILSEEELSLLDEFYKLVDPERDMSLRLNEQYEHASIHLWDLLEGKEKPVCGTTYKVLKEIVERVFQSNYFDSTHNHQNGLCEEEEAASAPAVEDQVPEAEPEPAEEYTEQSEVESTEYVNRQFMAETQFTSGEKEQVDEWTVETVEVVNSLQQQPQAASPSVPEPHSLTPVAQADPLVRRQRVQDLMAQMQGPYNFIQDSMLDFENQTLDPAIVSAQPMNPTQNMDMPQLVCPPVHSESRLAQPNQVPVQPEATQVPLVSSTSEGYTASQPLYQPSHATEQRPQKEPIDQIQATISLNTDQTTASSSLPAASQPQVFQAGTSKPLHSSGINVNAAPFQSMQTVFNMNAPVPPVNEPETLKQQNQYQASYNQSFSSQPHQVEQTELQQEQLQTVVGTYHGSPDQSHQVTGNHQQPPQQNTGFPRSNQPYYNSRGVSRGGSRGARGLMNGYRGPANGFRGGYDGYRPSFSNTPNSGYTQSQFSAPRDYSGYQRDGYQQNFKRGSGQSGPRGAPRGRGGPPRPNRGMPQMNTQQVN

T4: peptide of SEQ ID NO: 268 (human)
T4 peptide: FTSGEKEQVDEW

T5: polypeptide comprising the amino acid sequence of SEQ ID NO: 269 (human)
T5 peptide: PPVNEPETLKQQNQYQAS

B1: mouse monoclonal antibody #4 (antibody, V domains shown)
VH: GAELVRSGASVKMSCKASGYSFTDYNMYWVKQTPGQGLEWIGYIYPGNGGTNYNQKFKGKATLTADTSSSTAYMQISSLTSEDSAVYFCARDYDDGGYAMDYWGQGTTVTVSS
VL: DIQMTQSPASLSASVGETVTITCRASGNIHNYLTWYQQKQGKSPQLLVYNAKTLADGVPSRFSGSGSGTQYSLKINRLQPEDFGSYYCQHFWNIPWTFGGGTKLNSR
notes: Mouse hybridoma antibody; also called anti-CAPRIN-1 mouse monoclonal antibody #4
B2: mouse monoclonal antibody #5 (antibody, V domains shown)
VH: DAELVKPGASVKISCKASGYTFTDHSIHWVQQKPEQGLEWIGYISPGNGNIKYNEKFKGKATLTADKSSSTAYMQLNSLTSEDSAVYFCKRSLGRGGPYYFDYWGQGTTVTVSS
VL: DIVLTQAAPSLPVTPGESVSISCRSSKSLLHSNGNTYLYWFLQRPGQSPQLLIYRMSNLASGVPDRFSGSGSGTAFTLRISRVEAEDVGVYYCMQHREYPVTFGSGPN
notes: Mouse hybridoma antibody; also called anti-CAPRIN-1 mouse monoclonal antibody #5
B3: human-chicken chimeric antibody #3 (antibody, human IgG1, kappa, V domains shown)
VH: AVTLDESGGGLQTPGGALSLVCKASGFTFSGYDMLWVRQAPGKGLEWVAGIGSTGGGTDYGAAVKGRATISRDNGQSTVRLQLNNLRAEDTATYYCAKVAGGCNSGYCRDSPGSIDAWGHGTEVIVSA
VL: AVTQQPASVSANPGETVKITCSGGGSRNYYGWYQQKSPGSVPVTVIYYDDQRPSNIPSRFSGALSGSTSTLTITGVQADDEAVYFCGSADSNTYEGSFGAGTTLTVLT
notes: also called human-chicken chimeric monoclonal antibody #3

Key:
[1] = target: T1, polypeptide of SEQ ID NO: 266; assay: ELISA on immobilised synthetic CAPRIN-1 peptides
Method: (§1) Then, the solution in each well was discarded, and each well was washed six times with PBST.
(§2) A TMB substrate solution (manufactured by Thermo Fisher Scientific Inc.) was added thereto at a concentration of 100 μl/well and left standing for 15 to 30 minutes to cause color reaction. After the color development, the reaction was terminated by the addition of 1 N sulfuric acid at a concentration of 100 μl/well. The absorbance was measured at 450 nm and 595 nm using an absorption spectrometer. As a result, a polypeptide of SEQ ID NO: 266 was identified as a partial CAPRIN-1 sequence recognized by all of the anti-CAPRIN-1 antibodies human-chicken chimeric monoclonal antibody #1 and anti-CAPRIN-1 monoclonal antibodies #1 to #5. In the polypeptide of SEQ ID NO: 266, a peptide of SEQ ID NO: 267 was identified as a partial sequence recognized by the human-chicken chimeric monoclonal antibody #1 and the mouse monoclonal antibodies #3 and #4. In the polypeptide of SEQ ID NO: 266, a peptide of SEQ ID NO: 268 was identified as a partial sequence recognized by the mouse monoclonal antibodies #1, #2, and #5. […] Also, a polypeptide comprising the amino acid sequence of SEQ ID NO: 270 was identified as a partial CAPRIN-1 sequence recognized by all of the anti-CAPRIN-1 monoclonal antibodies #6, #7, and #8. […] In addition, a polypeptide comprising the amino acid sequence of SEQ ID NO: 272 was identified as a partial CAPRIN-1 sequence recognized by all of the anti-CAPRIN-1 monoclonal antibodies #9, #10, and #11. […] In addition, a polypeptide comprising the amino acid sequence of SEQ ID NO: 269 was identified as a partial CAPRIN-1 sequence recognized by the human-chicken chimeric monoclonal antibody #3.

[2] = target: T2, peptide of SEQ ID NO: 267; assay: ELISA on immobilised synthetic CAPRIN-1 peptides
Method: as §1, §2

[3] = target: T3, CAPRIN-1 protein expressed on the cell …; assay: flow cytometry on Capan-2, MIAPaCa-2, PANC-1 and BxPC-3 cells, vs isotype control
Method: Next, four pancreatic cancer cell lines (Capan-2, MIAPaCa-2, PANC-1, and BxPC-3) confirmed to have CAPRIN-1 gene expression were examined for their expression of CAPRIN-1 protein on the cell surface. 10⁶ cells of each cell line were centrifuged in each 1.5-ml microcentrifuge tube. The cancer cell surface-reactive anti-CAPRIN-1 mouse monoclonal antibodies #1 to #22 prepared in Example 4 and the culture supernatant (100 μl) containing the anti-CAPRIN-1 mouse-chicken chimeric antibody #1, #2, or #3 prepared in the preceding paragraph (2) were separately added to the tubes and left standing for 1 hour on ice. After washing with PBS, the cells were suspended in FITC-labeled goat anti-mouse IgG antibodies (manufactured by Invitrogen Corp.) diluted 500-fold with PBS containing 0.1% FBS and left standing for 1 hour on ice. After washing with PBS, the fluorescence intensity was measured using FACSCalibur (Becton, Dickinson and Company). On the other hand, the same operation as above was performed using isotype control antibodies, instead of the anti-CAPRIN-1 mouse monoclonal antibodies #1 to #22 and the culture supernatant containing the mouse-chicken chimeric antibody #1, #2, or #3, to prepare a control. As a result, all the cells supplemented with any of the monoclonal antibodies #1 to #22 and the mouse-chicken chimeric antibodies #1, #2, and #3 had fluorescence intensity at least 20% stronger than that of the control. […] The above rate of enhancement in fluorescence intensity was indicated by the rate of increase in mean fluorescence intensity (MFI) in each cell line and calculated according to the following expression: […]

[4] = target: T3, CAPRIN-1 protein expressed on the cell …; assay: cell-based or functional assay
[5] = target: T4, peptide of SEQ ID NO: 268; assay: ELISA on immobilised synthetic CAPRIN-1 peptides
Method: as §1, §2

[6] = target: T5, polypeptide comprising the amino acid …; assay: ELISA on immobilised synthetic CAPRIN-1 peptides
Method: as §1, §2

Binder	binding result [1]	binding result [2]	rate of increase in mean fluorescence intensity [3] [%]	cytotoxic activity (ADCC) against MIAPaCa-2 and Capan-2 [4] [%]	binding result [5]	binding result [6]
B1	binds	binds	≥ 20	≥ 10	–	–
B2	binds	–	≥ 20	≥ 10	binds	–
B3	–	–	–	≥ 10	–	binds
